Results taken from the supplement of paper PMC9170038.

System: MS2 coat protein
Test: apparent KD of MS2 coat protein; higher = weaker reporter binding
Conditions: Eterna round: R107
Outline: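 Binding of SNAP-549-labelled MS2 coat protein was measured on designed RNA switches transcribed on-chip from Illumina sequencing clusters. The protein rose in twofold steps from 0.7 or 1.5 nM to 3 µM, with 0.8–1.5 h per step early on and 10–20 min per step later, in 100 mM Tris-HCl pH 7.5, 80 mM KCl, 4 mM MgCl2, without or with constant ligand. Each design's apparent KD is the median of fits to its normalised cluster binding curves.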

[1] = input ligand: theophylline 20 uM
[2] = input ligand: theophylline 2 mM
[3] = input ligand: tryptophan 2.4 mM

Sequence	apparent KD of MS2 coat protein (input ligand: arginine 13.2 mM) [nM]	apparent KD of MS2 coat protein [1] [nM]	apparent KD of MS2 coat protein [2] [nM]	apparent KD of MS2 coat protein (input ligand: none) [nM]	apparent KD of MS2 coat protein [3] [nM]
UAAUGCAGGUCGGCCGCCACUACACACAUGAGGAUCACCCAUGUAGUUACUGGGUGAAGUGGCAGUAGGACCGGGACCUGCAUAC [Brourdmod04]	165	578	833	–	–
UAGACGGCCGGAAGGAGCGGUACAUGAGGAUCACCCAUGUAUCCCUGGGCAUCCGUAGUGUGCCAGGUAGGUCGCCGGUUGCGGG [XArg-B21]	15.3	25.2	18.2	15.5	15.9
GGUUACUCUACGGCCGCCACUGUAAUGUAAAGAUACCUGUACAUGACAUGAGGAUCACCCAUGUGCAGGACCGGGUAGUGUAACC [Tryptophan B 19]	50.6	93.6	70	61.6	19.8
ACAUGAGGAUCACCCAUGUACAUAAGGGAAGGAGCGCGGUGAAACGCAGGUAGGUCGCCCAUAAUAACAAACAUUAAAUUCAUGU [LeftA2]	28	18.6	17.9	14.3	16.6
GGCAGUCAUAGGAGGGCAAAUAUACUCGAAGGAGCGUCAUAGUAGGCAGGUAGGUCGCGAGACAUGAGGAUCACCCAUGUAGAGA [wwzmullin]	20.2	106	125	66.9	90.5
GCAUCCUAGUCGGCCGCCACUGGUACGAACACCUUCACCCGUGUGCACAUGAGGAUCACCCAUGUCAGGACCGGGACUAGGAUGC [SSTryp B #22]	9.48	10.9	8.54	–	–
AGCACUGUGACGGCCGCCACUACAUAAAUAGGGUGGUCAGGUUCAUUACAUGAGGAUCACCCAUGUAGGACCGGGUCUCAGUGCA [Omei Trp Exc B A v7]	10	11.9	11	–	–
AUCCUCAAGAAUGAUACCAGACCAAACAUGAGGAUCACCCAUGUAUCAGGCAAUUGUUACGUCCCUUGGCAGCAUGUAAGCCGAC [Theo B SS t2]	35.5	70.2	–	–	39.2
CUAUAAGUACCGGUCCUCAGAUCCUCAUGACGAGGACCGGUACGGCCGCCACUCGAAACAUGAGGAUCACCCAUGUAAUAAUAAU [Brourdmod06]	15	38.5	24.5	–	–
ACGUCUCGAAAACUCGUAGUAACUAUAGAUACCAGUAGCGAGAGUUACCCUUGGCAGCUACAUGAGGAUCACCCAUGUACGAGGA [XTheo A #28]	16.4	20.9	–	–	15.1
AAUUUAAACGGAAGGAGCGUCACUUAAUAUCAACAUGAGGAUCACCCAUGUACGGGUUGUAGACAGGUAGGUCGCCGUCAUUUGA [#15 Same State - Arginine B]	49.4	74.5	64.5	47.9	53.5
AGUUAAAUAUGUUAAUAACUAUUUACUGAAGGAGCGUGUUUUGACACAGGUAGGUCGCAGUGACAUGAGGAUCACCCAUGUCGUA [#08 Same State - Arginine A]	20.3	21.8	21.6	17.4	19.2
CGGUCGGUCGGCCGGUGAUUAUGGGAUGAAGGAGCGUGGGAAGCUACAGGUAGGUCGCAUCCGAAACACGAGGAUCACCCGUGUU [SSArg A #25Alt-Ms2 Mod]	26.5	38.3	37.4	24.3	28.4
CUACAUUUGUAGAAACCGGUCAACAAUAAUCGAGGACCGGUACGGCCGCCACUCGAUGUAAAAUAAACAUGAGGAUCACCCAUGU [Tryptophan A 12]	13.5	20.6	20	–	–
CAUGGCUGUGCGGCCGCCACUGGCUCAUCCUGCAUUACAUGAGGAUCACCCAUGUUGCGGCCUCCCAGGACCGGGCAUAGCCUGA [Abediat]	39.5	511	571	–	–
GCGCGGCGAGUGCGGCGUGUUCCGCUCCGUCGAGGACCGGUACGGCCGCCACUCGACAUGAGGAUCACCCAUGUCGCCGCGCGUC [Exclusion - Tryptophan A Attempt #1]	12.6	48.6	19.2	–	–
AGGACGGUCGGAAGGAGCGGUACAUGAGGAUCACCCAUGUACCUCUGGGCAUCCGUAGUGUGCCAGGUAGGUCGCCGAUUGCGGG [Lareerra]	15.7	19.5	16.5	12	11.8
GGACCAUGGCGCGAUACCAGCUUGAGUGUACUGGCCAGGUACAUGAGGAUCACCCAUGUAAGCCCUUGGCAGCGCGCCAUGGUCC [#1 Exclusion - Theophylline B Attempt #24 (HarryS)]	10.4	16.1	36.5	10.3	10.7
UUAAUGGAGCUUUUAUUUACGAUUUCUGAUACCAGUGUUUCAUUUCACCCUUGGCAGCAGUGACAUGAGGAUCACCCAUGUAAUA [JR_Nu_SSTheophyA_Sub021]	30.3	33.8	–	–	25.9
UCGCCCGGGUCGGCCGCCACUGAGGUAAUAUGACAUGAGGAUCACCCAUGUUGUCAUGUGGAACAUAGGACCGGGACCCGGGCGA [Exclusion - Tryptophan B Attempt #1 (HarryS)]	9.15	15.1	15.2	8.61	13.4

Sequence	apparent KD of MS2 coat protein (input ligand: arginine 13.2 mM) [nM]	apparent KD of MS2 coat protein [1] [nM]	apparent KD of MS2 coat protein [2] [nM]	apparent KD of MS2 coat protein (input ligand: none) [nM]	apparent KD of MS2 coat protein [3] [nM]
GAUGAUAUUGCAGAUACCAGACACAUGAGGAUCACCCAUGUCUCUGUGAUGUAGGAUUGUGUCCCUUGGCAGCUGCGAUAUCAUC [Chile]	88	258	–	–	175
CGAUCUUUCGAAAGAAGGAUCGAUUCUGAUACCAGAGACGAAAGUCUCCCUUGGCAGCAGUGCCAACAUGAGGAUCACCCAUGUA [Theophylline A 8]	26.4	26	–	–	23.6
UGUAUGGACUGAAGGAGCGGGUAAUAAACCUGAGGAUCACCCAGGUAAUAGGCGAAAGCCGCCCAGGUAGGUCGCAGUCCAUACU	13.2	13.7	11.7	13.5	12.5
AGCGAUAUGCAUGAUACCAGCUACAUGAGGAUCACCCAUGUACGUCAGUAAUGACUGUGUAGCCCUUGGCAGCAUAGAGCAUGUA [Exclusion - Theophylline B (Freestyle 13)]	21.7	35.4	–	–	22.7
UAUCCACAUGAGGAUCACCCAUGUAGGGAAGGAGCGGUGAAUGCACCAGGUAGGUCGCCUUGCUGAGGACAGCCGGUGGAUUCGU [Exclusion - Arginine A (Freestyle 26)]	16.7	19	23	12.2	16
ACCAUGUAAUCAGAUACCAGACAUCUUUUAAAUCAUAUUACAUGAGGAUCACCCAUGUUGGUCCCUUGGCAGCUGAAAUAUUUCA [JR_Nu_SSTheophyB_Sub025]	144	351	–	–	529
CACGAAAGAUCGGCCGCCACUAACCUGUGUGUACUAGCACAUGAGGAUCACCCAUGUUCUUGCGUUAGGACCGGGAUUGAGCGUG [#04 Exclusion Tryptophan B]	20.9	30.7	27.5	–	–
CUAUGCAGGUCGGCCGCCACUACACACAUGAGGAUCACCCAUGUAGUUACUGGGUGAAGUGGCAGUAGGACCGGGACCUGCACAU [Brourdmod15]	190	578	659	480	229
AAAGGUCGCAAUAAAUCUCCUACAUGUGAAGGAGCGCGCGAAAGCGCAGGUAGGUCGCACAUGAGGAUCACCCAUGUGAGCGACC [MAT - Exclusion Arginine A - Mod of Eli - D3]	9.41	14.5	13.1	11.5	10.8
GGUAUGUAUUCGGAAACGAAUGCAUACCAUCGAGGACCGGUACGGCCGCCACUCGUGGCUGAUCAACAUGAGGAUCACCCAUGUA [Ex Tryptophan A 1]	36.1	94.3	83.4	85.9	50.4
GCUAGGUCUACGGCCGCCACUAGACGUGGGUAAGACAUGAGGAUCACCCAUGUACUACGGGCGAAUAGGACCGGGUAGACCUAGC [SSTB NP+V+V2 #14 Same Structure]	173	499	668	321	39.1
GGAUAGGACACGGCCGCCACUACCUAGGAUACUAGCAACAUUUGGGUAUAUGAGGAUCACCCAUAUAGGACCGGGUGUCCUAUCG	48.5	88	95.2	75.8	102
UAUAUAGAAGGAUGUCAUAUAGAUGCAGAAGGAGCGUAGGAAACUACAGGUAGGUCGCUGAGGUACAUGAGGAUCACCCAUGUAG [SSArg A #17 Slice of Pi]	32.6	54	45.5	33.1	26.7
CGUGGUUGAGAUGGGCCUCUGAUAAGUCUGCGAGGACCGGUACGGCCGCCACUCGAGGACAUGAGGAUCACCCAUGUACUUCGCG [Vequar]	41.1	139	50.5	30.8	19.2
UUGUAUAUGCGAAGGAGCGGGAAAUAUAUAUAUAUAAUCCUAACAUGAGGAUCACCCAUGUCCCAGGUAGGUCGCGCAUAUAUGG [12.F]	80.5	80.7	87.9	69.5	78.3
GAGCUGAUGUAGAGCGAAUAUACGAGAGAUACCAGUACAGAAAUGUACCCUUGGCAGCUCAACUUUACAUGAGGAUCACCCAUGU [Ex Theophylline A 22]	14.4	15.2	–	–	14.3
GGACUAACUGGAAGGAGCGACGCGCAGAAACUGCAAUUUCCUCCACACGAGGAUCACCCGUGUCAGGUAGGUCGCCAGUUAGUCG [ArgBX 29]	19.1	24.7	21.1	16.7	18.6
GGGCGCUAUCCCGCGAGGGAUAGCGUUCUUCGAGGACCGGUACGGCCGCCACUCGAACGAGUGGUGACAUGAGGAUCACCCAUGU [Paa]	35.6	75	81.1	63.6	58.7
UGUAUAUACGGAAGGAGCGUGUAAGAUUAAGAACAUGAGGAUCACCCAUGUUUUAAGGGAACACAGGUAGGUCGCCGUAUAUAUG [11.O]	9.29	14.1	11.7	12.4	10.3
